Test results as given in patent US7167802B2, “Methods for identifying agents that interact with MAP kinase activated protein kinase 2” (Wyeth, priority 2002, dated 2007).
Read-outs that look alike come from different tables or passages of the source.

What was measured:
MK2 = target: T1, MK2 (Homo sapiens, UniProt P49137); experiment: MK2 kinase kinetics, continuous pyruvate kinase/lactate dehydrogenase coupled assay at 340 nm; type: biochemical; details: for Km: 25° C.
T1 construct: made in house; host or cells: E. coli BL21 (DE3)
Experimental: Activation of MK2 Constructs. The MK2 constructs 41–400 and 41–364 were activated by the phosphorylation of the constructs by p38 MAP kinase. The activation was done in 20 mM HEPES (pH 7.5), 10 mM MgCl2, 2 mM DTT, 0.50 mM ATP, 0.2 mg/ml MK2 and 0.125 μg activated p38. The reaction was incubated at 25° C. for 1–2 hour then placed on ice to be used for kinetic analysis.
Kinase Kinetics. The rate of MK2 kinase was characterized in 20 mM HEPES (pH 7.5), 10 mM MgCl2, 2 mM DTT and 100 mM NaCl. The kinetics was followed by linking the turnover of ATP is to the turnover of NADH to NAD. This was followed spectrophotometrically at 340 nm. The continuos assay contained 20 units pyruvate kinase, 30 units lactate dehydrogenase, 0.25 mM NADH, 2 mM PEP and 1.6 to 8.0 μg/mL MK2. For determining the apparent Km for ATP, the ATP concentration was varied from 0.005 to 0.25 mM while the peptide was held constant at 0.2 mM for activated MK-2 or 1.0 mM for the constitutively active form of MK-2 (41–364). For determining the apparent Km for LSP-1, the LSP-1 concentration was varied from 0.01 to 0.5 mM while ATP was held constant at 2 mM. The kinetic analysis was carried out in a 96-well plate at 25° C., on a Molecular Devices spectrophotometer.
Substrate Kinetics. Peptide LSP, based on the protein substrate of MK-2 lymphocyte/leukocyte specific protein, was used for the investigation of the kinetic mechanism for the enzyme MK-2. Data was fit to equation 1 for normal Michaelis-Menten kinetics. v=Vmax[S]/Km+[S] (1) where [S] is the substrate, Vmax is the maximum enzyme velocity, Km is the Michaelis constant.

[1] = test system: LPS-induced cytokine synthesis in human monocytes; details: cited from earlier work
[2] = test system: MAP kinase activated protein kinase 2 (MK2); details: cited from earlier work
[3] = p38 + (construct activated by p38 phosphorylation)
[4] = p38 + (construct activated by p38 phosphorylation), ATP held at 2 mM, read-out: Apparent Km (LSP-1)
[5] = p38 activated / phosphorylated by p38

T1 sequence (P49137 with tags, fused parts or gaps): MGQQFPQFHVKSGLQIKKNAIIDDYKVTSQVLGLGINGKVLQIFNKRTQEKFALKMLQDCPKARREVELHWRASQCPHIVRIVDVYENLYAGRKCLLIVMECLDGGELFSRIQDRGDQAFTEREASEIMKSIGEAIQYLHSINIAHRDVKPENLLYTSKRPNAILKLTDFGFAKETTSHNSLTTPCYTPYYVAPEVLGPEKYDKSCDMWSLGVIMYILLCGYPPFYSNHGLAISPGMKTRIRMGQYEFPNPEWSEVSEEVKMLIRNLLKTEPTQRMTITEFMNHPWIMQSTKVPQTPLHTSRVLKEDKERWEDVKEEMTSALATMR

Molecule	Vmax (MK2; not phosphorylated) [µmol/min/mg]	Vmax (MK2; [3])	Km (MK2; [4]) [µM]	Vmax (MK2; [5]) [µmol/min/mg]	Vmax (MK2; p38 − (not phosphorylated))	Km (MK2; p38 − (not phosphorylated), ATP held at 2 mM, read-out: Apparent Km (LSP-1)) [µM]	Km (MK2; p38 − (not phosphorylated), LSP-1 peptide held at 1.0 mM, listed as MK2 41-364, read-out: Apparent Km (ATP)) [µM]	Km (MK2; p38 − (not phosphorylated), LSP-1 peptide held at 1.0 mM, read-out: Apparent Km (ATP)) [µM]	Km for LSP-1 peptide substrate, fold higher compared to p38 phosphorylated MK2 41-400 (MK2; unphosphorylated MK2 41-364) [fold]	Vmax, fold lower compared to p38 phosphorylated MK2 41-400 (MK2; unphosphorylated MK2 41-364) [fold]	binding of the peptide substrate LSP-1, fold weaker than to p38 activated MK2 41-400 (MK2; unphosphorylated MK2 41-364 vs p38 activated MK2 41-400)	Km (MK2; p38 + (construct activated by p38 phosphorylation), LSP-1 peptide held at 0.2 mM, listed as MK2 41-400, read-out: Apparent Km (ATP)) [µM]	Km (MK2; p38 + (construct activated by p38 phosphorylation), LSP-1 peptide held at 0.2 mM, read-out: Apparent Km (ATP)) [µM]	LPS-induced cytokine synthesis [1]	activation of MK2 [2]
41-364: constitutively active MK2 polypeptide, residues 41–364, in which a portion of the C-terminal autoinhibitory domain was removed [Construct 41-364]	0.076	11 + 14 μmole/min/mg	20	11	0.076 + 0.004 μmole/min/mg	584	7	15	45	100	more than 40 fold	–	–	–	–
41-400: MK2 construct, amino acid residues 41–400, lacking the first 40 residues of the proline rich domain [Construct 41-400]	–	8.9 + 0.1 μmole/min/mg	13	8.9	no activity	–	–	–	–	–	–	15	7	–	–
C[S+]([O-])c1ccc(-c2nc(-c3ccncc3)c(-c3ccc(F)cc3)[nH]2)cc1 (stereo not shown) [SB203580]	–	–	–	–	–	–	–	–	–	–	–	–	–	inhibits LPS-induced cytokine synthesis	prevents the activation
